This is an account of results in paper PMC3045457, “Evolution of Acetylcholinesterase and Butyrylcholinesterase in the Vertebrates: An Atypical Butyrylcholinesterase from the Medaka Oryzias latipes” (PLoS ONE, 2011).

Series [1] deals with T1, atypical BChE from O. latipes (Oryzias latipes, UniProt D5L5S0).
T1 construct: GPI-anchored amphiphilic dimer (G2a)
T1 sequence (D5L5S0 26-589): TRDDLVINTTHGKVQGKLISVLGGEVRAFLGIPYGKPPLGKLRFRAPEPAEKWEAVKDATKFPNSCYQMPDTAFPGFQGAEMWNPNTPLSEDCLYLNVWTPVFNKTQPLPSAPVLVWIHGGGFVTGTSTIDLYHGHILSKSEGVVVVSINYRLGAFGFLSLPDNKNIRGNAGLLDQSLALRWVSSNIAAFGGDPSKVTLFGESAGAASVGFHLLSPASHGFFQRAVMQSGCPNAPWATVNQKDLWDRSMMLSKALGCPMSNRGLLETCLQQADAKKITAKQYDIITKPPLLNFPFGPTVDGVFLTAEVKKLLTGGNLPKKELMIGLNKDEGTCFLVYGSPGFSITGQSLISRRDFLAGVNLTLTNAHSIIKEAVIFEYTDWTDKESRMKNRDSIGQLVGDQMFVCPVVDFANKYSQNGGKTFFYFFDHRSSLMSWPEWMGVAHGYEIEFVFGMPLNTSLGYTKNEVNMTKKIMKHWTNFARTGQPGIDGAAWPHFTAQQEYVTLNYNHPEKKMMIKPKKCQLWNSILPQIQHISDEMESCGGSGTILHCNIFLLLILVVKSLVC
In words: Ellman assay, COS-7 extract, three-parameter logistic fit. Format: biochemical. From the text:
Ellman assay, COS-7 extract, three-parameter logistic fit on atypical BChE from O. latipes

Substrate in series [2]: CC(=O)SCC[N+](C)(C)C
In words: Ellman assay, COS-7 extract, fit with substrate inhibition (Km, Kss, b). In kind it is biochemical, Oryzias latipes. The following applies: 100 mM NaHPO4 pH 7, 0.3 mM DTNB, 167 mM NaCl, 258 µM Triton X-100. From the text:
(§1) Ellman assay, COS-7 extract, fit with substrate inhibition (Km, Kss, b) on atypical BChE from O. latipes
A general note: DTNB colorimetry detects thiols as they appear.

Substrate in series [3]: CCC(=O)SCC[N+](C)(C)C
The series is described as above. To be noted: 100 mM NaHPO4 pH 7, 0.3 mM DTNB, 167 mM NaCl, 258 µM Triton X-100. Format: biochemical, Oryzias latipes.
Text: as §1

Substrate in series [4]: CCCC(=O)SCC[N+](C)(C)C
Described as above. The following applies: 100 mM NaHPO4 pH 7, 0.3 mM DTNB, 167 mM NaCl, 258 µM Triton X-100. In kind it is biochemical, Oryzias latipes.
Text: as §1

Counter-ions that a name gives are not always drawn. Like-named read-outs stand apart in the source and are kept apart here.

What is called IC50 is the concentration at which inhibition is half-maximal. For the molecule `C=CC[N+](C)(C)c1ccc(CCC(=O)CCc2ccc([N+](C)(C)CC=C)cc2)cc1` [BW284c51, [4-[5-[4-(dimethyl-prop-2-enyl-ammonio)phenyl]-3-oxo-pentyl]phenyl]-dimethyl-prop-2-enyl-azanium dibromide], in series [1] (read-out: IC50 M), the IC50 was found to be 480 µM.

In series [1], `CNC(=O)Oc1ccc2c(c1)[C@]1(C)CCN(C)[C@@H]1N2C` [physostigmine, (3aS-cis)-1,2,3,3a,8,8a-hexahydro-1,3a,8-trimethylpyrrolo[2,3-b]indol-5-ol methylcarbamate] gave an IC50 of 0.0585 µM.

In the case of `CCN(CC)C(C)CN1c2ccccc2Sc2ccccc21` (stereo not shown) [ethopropazine, 10-(2-diethylaminopropyl) phenothiazine hydrochloride], the IC50 in series [1] (read-out: IC50 M) was determined as 0.898 µM.

Regarding `CC(C)NP(=O)(NC(C)C)OP(=O)(NC(C)C)NC(C)C` [iso-OMPA, N-[bis(propan-2-ylamino)phosphoryloxy-(propan-2-ylamino)phosphoryl]propan-2-amine], the concentration for half-maximal inhibition (IC50) in series [1] (read-out: IC50 M) came out at 4580 µM.

B1: atypical BChE from O. latipes (Oryzias latipes) (protein)
chain: T1 sequence (D5L5S0 26-589)
notes: GPI-anchored amphiphilic dimer (G2a)
The Km is the substrate concentration at which the rate is half of its maximum. One may read the kcat as the number of substrate molecules converted per active site and unit of time at saturation. One may read the kcat/Km as the turnover number divided by the Michaelis constant. With B1, in series [2], the Km came out at 270 ± 18 µM, the kcat amounted to 460 ± 18.3 s⁻¹ and the kcat/Km worked out at 1.72e+06 ± 83300 M⁻¹ s⁻¹. Also, in series [3], the Michaelis-Menten constant (Km) was 156 ± 15 µM, the kcat was determined as 512 ± 40 s⁻¹ and the catalytic efficiency (kcat/Km) is 3.33e+06 ± 83300 M⁻¹ s⁻¹. In series [4], the Km was found to be 72 ± 6 µM, the catalytic constant (kcat) was found to be 117 ± 5 s⁻¹ and the catalytic efficiency (kcat/Km) came out at 1.65e+06 ± 117000 M⁻¹ s⁻¹.
